Measured values reported in US20070053894A1 (TRANSFERT PLUS, published 2007).
One block for each binder: values may come before it.

B1: Soluble human recombinant p97 (melanotransferrin) (other)
chain: GMEVRWCATSDPEQHKCGNMSEAFREAGIQPSLLCVRGTSADHCVQLIAAQEADAITLDGGAIYEAGKEHGLKPVVGEVYDQEVGTSYYAVAVVRRSSHVTIDTLKGVKSCHTGINRTVGWNVPVGYLVESGRLSVMGCDVLKAVSDYFGGSCVPGAGETSYSESLCRLCRGDSSGEGVCDKSPLERYYDYSGAFRCLAEGAGDVAFVKHSTVLENTDGKTLPSWGQALLSQDFELLCRDGSRADVTEWRQCHLARVPAHAVVVRADTDGGLIFRLLNEGQRLFSHEGSSFQMFSSEAYGQKDLLFKDSTSELVPIATQTYEAWLGHEYLHAMKGLLCDPNRLPPYLRWCVLSTPEIQKCGDMAVAFRRQRLKPEIQCVSAKSPQHCMERIQAEQVDAVTLSGEDIYTAGKKYGLVPAAGEHYAPEDSSNSYYVVAVVRRDSSHAFTLDELRGKRSCHAGFGSPAGWDVPVGALIQRGFIRPKDCDVLTAVSEFFNASCVPVNNPKNYPSSLCALCVGDEQGRNKCVGNSQERYYGYRGAFRCLVENAGDVAFVRHTTVFDNTNGHNSEPWAAELRSEDYELLCPNGARAEVSQFAACNLAQIPPHAVMVRPDTNIFTVYGLLDKAQDLFGDDHNKNGFKMFDSSNYHGQDLLFKDATVRAVPVGEKTTYRGWLGLDYVAALEGMSSQQCSG
notes: Provided by Biomarin Pharmaceutical Inc; also called soluble p97; MTf

Key:
plasminogen [1] = molecular target: T1, plasminogen (UniProt P00747 20-810); assay: SPR (BIAcore), plasminogen over immobilised p97, two state conformational change model (apparent KD)
T1 construct: Bought reagent; also called Plg; glu-plasminogen
Description: (§1) Ringer solution or a 50 mM Tris/HCl buffer (pH 7.5) containing 150 mM NaCl and 50 mM CaCl₂ is used as the eluent buffer. Proteins are diluted in the corresponding eluent buffer and injected onto the sensor chip surface. Protein interactions are analyzed using both the Langmuir binding model, which is the simplest model for 1:1 interaction between analyte and immobilized ligand, and a two-state conformational change model which describes a 1:1 binding of analyte to immobilized ligand followed by a conformational change.
(§2) The SPR response for these proteins is plotted in RU as a function of time.
(§3) About 8-10 ng/mm² of PAI-1 was also immobilized onto another well of a sensor chip surface using NHS/EDC coupling conditions.

plasminogen [2] = molecular target: T1, plasminogen; assay: SPR (BIAcore), plasminogen over immobilised p97, two state conformational change model (kd1)
Description: as §1, §2, §3

[3] = molecular target: T2, pro-urokinase plasminogen activator (pro-uPA) (UniProt P00749 21-431, limits assumed); assay: SPR (BIAcore), pro-uPA over immobilised p97, two state conformational change model (apparent KD)
T2 construct: Bought reagent; also called sc-uPA; scu-PA
Description: (§4) Protein interactions are analyzed using both the Langmuir binding model, which is the simplest model for 1:1 interaction between analyte and immobilized ligand, and a two-state conformational change model which describes a 1:1 binding of analyte to immobilized ligand followed by a conformational change.
as §2, §3

plasminogen [4] = molecular target: T1, plasminogen; assay: SPR (BIAcore), plasminogen over immobilised p97, two state conformational change model (ka1)
Description: as §1, §2, §3

[5] = molecular target: the molecule itself; assay: SPR (BIAcore), soluble p97 injected over p97 immobilised on a CM5 chip
Description: as §1
(§5) Transcytosis experiments are performed at 37° C. for 2 hrs. […] At the end of the experiment, radiolabelled proteins are measured in the lower chamber of each well by TCA precipitation.

plasmin = plasmin (UniProt P00747 97-810, limits assumed); assay: SPR (BIAcore), plasmin injected over immobilised p97
Description: as §1, §2, §3

plasminogen [6] = molecular target: T1, plasminogen; assay: SPR (BIAcore), various concentrations of p97 injected over immobilised plasminogen; plasminogen immobilized, p97 injected
Description: as §1

[7] = molecular target: T2, pro-urokinase plasminogen activator …; assay: SPR (BIAcore), two state conformational change model; text value differs from Table 3
Description: as §4, §2, §3

[8] = molecular target: T2, pro-urokinase plasminogen activator …; assay: SPR (BIAcore), pro-uPA over immobilised p97, two state conformational change model (kd1)
Description: as §4, §2, §3

plasminogen [9] = molecular target: T1, plasminogen; assay: cell-based or functional assay
[10] = molecular target: T2, pro-urokinase plasminogen activator …; assay: SPR (BIAcore), pro-uPA over immobilised p97, two state conformational change model (ka1)
Description: as §4, §2, §3

plasminogen [11] = molecular target: T1, plasminogen; assay: SPR (BIAcore), p97 over immobilised plasminogen, two state conformation change model
Description: as §1

[12] = molecular target: B1; assay: SPR (BIAcore), angiostatin injected over immobilised p97
Description: as §1, §2, §3

[13] = molecular target: B1; assay: not described (Discussion; presumably SPR)
[14] = molecular target: B1; assay: SPR (BIAcore), tPA injected over immobilised p97
Description: as §1, §2, §3

[15] = molecular target: B1; assay: SPR (BIAcore), RAP injected over immobilised p97
Description: as §1, §5

T1 sequence (P00747 20-810 limits assumed): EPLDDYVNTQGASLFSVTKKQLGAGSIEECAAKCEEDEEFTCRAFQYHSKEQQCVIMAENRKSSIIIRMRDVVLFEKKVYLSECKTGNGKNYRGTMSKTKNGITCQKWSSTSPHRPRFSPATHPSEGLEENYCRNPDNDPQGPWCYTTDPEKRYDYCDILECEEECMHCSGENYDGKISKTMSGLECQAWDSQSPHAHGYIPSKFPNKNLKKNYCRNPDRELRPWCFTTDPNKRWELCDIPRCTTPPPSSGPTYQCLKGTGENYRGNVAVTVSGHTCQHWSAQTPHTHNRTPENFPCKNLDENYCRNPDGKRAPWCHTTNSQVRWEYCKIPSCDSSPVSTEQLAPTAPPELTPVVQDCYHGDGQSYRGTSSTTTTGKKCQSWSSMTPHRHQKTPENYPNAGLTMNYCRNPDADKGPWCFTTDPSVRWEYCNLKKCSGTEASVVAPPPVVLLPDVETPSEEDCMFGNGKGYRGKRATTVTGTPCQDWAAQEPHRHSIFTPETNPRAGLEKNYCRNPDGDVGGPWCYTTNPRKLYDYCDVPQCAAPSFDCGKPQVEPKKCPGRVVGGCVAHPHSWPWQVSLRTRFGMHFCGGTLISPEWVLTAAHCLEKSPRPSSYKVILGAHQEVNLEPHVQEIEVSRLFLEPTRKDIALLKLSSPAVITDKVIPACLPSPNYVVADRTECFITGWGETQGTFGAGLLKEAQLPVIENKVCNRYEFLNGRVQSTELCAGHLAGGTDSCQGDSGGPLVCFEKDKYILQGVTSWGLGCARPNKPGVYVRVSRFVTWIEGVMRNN
Chain of plasmin (P00747 97-810 limits assumed): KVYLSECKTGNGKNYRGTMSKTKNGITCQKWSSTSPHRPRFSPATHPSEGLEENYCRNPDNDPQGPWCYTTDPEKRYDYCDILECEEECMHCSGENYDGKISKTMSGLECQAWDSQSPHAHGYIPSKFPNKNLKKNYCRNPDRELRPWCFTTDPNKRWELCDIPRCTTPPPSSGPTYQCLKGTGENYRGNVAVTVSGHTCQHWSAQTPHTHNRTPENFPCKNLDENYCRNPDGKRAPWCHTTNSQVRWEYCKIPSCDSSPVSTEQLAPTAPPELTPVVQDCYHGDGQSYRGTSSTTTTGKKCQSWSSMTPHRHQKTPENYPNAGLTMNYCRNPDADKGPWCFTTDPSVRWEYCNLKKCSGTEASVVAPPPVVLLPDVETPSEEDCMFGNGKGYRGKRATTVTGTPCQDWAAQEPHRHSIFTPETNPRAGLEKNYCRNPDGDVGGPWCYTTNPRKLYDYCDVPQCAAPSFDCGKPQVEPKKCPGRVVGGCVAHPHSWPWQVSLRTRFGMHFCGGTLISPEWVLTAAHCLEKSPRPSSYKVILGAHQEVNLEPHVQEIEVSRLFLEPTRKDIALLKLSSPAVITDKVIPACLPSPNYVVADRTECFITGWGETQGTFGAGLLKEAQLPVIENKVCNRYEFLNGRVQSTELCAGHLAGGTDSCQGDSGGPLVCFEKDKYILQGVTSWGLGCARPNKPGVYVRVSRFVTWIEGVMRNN

binding result [14]: no binding (tested: 0.05 µg/µl)
B4: tissue plasminogen activator (tPA) (enzyme, UniProt P00750 36-562, looked up)
chain: SYQVICRDEKTQMIYQQHQSWLRPVLRSNRVEYCWCNSGRAQCHSVPVKSCSEPRCFNGGTCQQALYFSDFVCQCPEGFAGKCCEIDTRATCYEDQGISYRGTWSTAESGAECTNWNSSALAQKPYSGRRPDAIRLGLGNHNYCRNPDRDSKPWCYVFKAGKYSSEFCSTPACSEGNSDCYFGNGSAYRGTHSLTESGASCLPWNSMILIGKVYTAQNPSAQALGLGKHNYCRNPDGDAKPWCHVLKNRRLTWEYCDVPSCSTCGLRQYSQPQFRIKGGLFADIASHPWQAAIFAKHRRSPGERFLCGGILISSCWILSAAHCFQERFPPHHLTVILGRTYRVVPGEEEQKFEVEKYIVHKEFDDDTYDNDIALLQLKSDSSRCAQESSVVRTVCLPPADLQLPDWTECELSGYGKHEALSPFYSERLKEAHVRLYPSSRCTSQHLLNRTVTDNMLCAGDTRSGGPQANLHDACQGDSGGPLVCLNDGRMTLVGIISWGLGCGQKDVPGVYTKVTNYLDWIRDNMRP
notes: Bought reagent

binding result [15]: no binding (tested: 0.05 µg/µl)
B5: receptor-associated protein (RAP) (other, UniProt P30533 35-357, looked up)
chain: YSREKNQPKPSPKRESGEEFRMEKLNQLWEKAQRLHLPPVRLAELHADLKIQERDELAWKKLKLDGLDEDGEKEARLIRNLNVILAKYGLDGKKDARQVTSNSLSGTQEDGLDDPRLEKLWHKAKTSGKFSGEELDKLWREFLHHKEKVHEYNVLLETLSRTEEIHENVISPSDLSDIKGSVLHSRHTELKEKLRSINQGLDRLRRVSHQGYSTEAEFEEPRVIDLWDLAQSANLTDKELEAFREELKHFEAKIEKHNHYQKQLEIAHEKLRHAESVGDGERVSRSREKHALLEGRTKELGYTVKKHLQDLSGRISRARHNEL

Further lines, the binder ahead of its results:

Binder: B1
Kd (plasminogen [1]): 350 nM | koff (plasminogen [2]): 0.043 s⁻¹ | Kd [3]: 65 nM | kon (plasminogen [4]): 21000 M⁻¹ s⁻¹ | binding result [5]: no binding (tested: 0.05 µg/µl (5 µg/100 µl)) | binding result (plasmin): no binding (tested: 0.05 µg/µl) | Kd (plasminogen [6]): 275 nM | kon [7]: 6600 M⁻¹ s⁻¹ | koff [8]: 0.0017 s⁻¹ | increase of plasminogen activation by tPA after 180 minutes (VLK-peptide hydrolysis) (plasminogen [9]): 6 fold | increase of plasminogen activation by tPA in the presence of p97 (VLK peptide hydrolysis) (plasminogen [9]): 4 fold | kon [10]: 6620 M⁻¹ s⁻¹ | Kd (plasminogen [11]): 260 nM

B2: angiostatin (other, UniProt P00747 98-459, looked up)
chain: VYLSECKTGNGKNYRGTMSKTKNGITCQKWSSTSPHRPRFSPATHPSEGLEENYCRNPDNDPQGPWCYTTDPEKRYDYCDILECEEECMHCSGENYDGKISKTMSGLECQAWDSQSPHAHGYIPSKFPNKNLKKNYCRNPDRELRPWCFTTDPNKRWELCDIPRCTTPPPSSGPTYQCLKGTGENYRGNVAVTVSGHTCQHWSAQTPHTHNRTPENFPCKNLDENYCRNPDGKRAPWCHTTNSQVRWEYCKIPSCDSSPVSTEQLAPTAPPELTPVVQDCYHGDGQSYRGTSSTTTTGKKCQSWSSMTPHRHQKTPENYPNAGLTMNYCRNPDADKGPWCFTTDPSVRWEYCNLKKCSGTEA
notes: domain: angiostatin (plasminogen fragment)
binding result [12]: no binding (tested: 0.05 µg/µl)

B3: ovalbumin (other, UniProt P01012 2-386, looked up)
chain: GSIGAASMEFCFDVFKELKVHHANENIFYCPIAIMSALAMVYLGAKDSTRTQINKVVRFDKLPGFGDSIEAQCGTSVNVHSSLRDILNQITKPNDVYSFSLASRLYAEERYPILPEYLQCVKELYRGGLEPINFQTAADQARELINSWVESQTNGIIRNVLQPSSVDSQTAMVLVNAIVFKGLWEKAFKDEDTQAMPFRVTEQESKPVQMMYQIGLFRVASMASEKMKILELPFASGTMSMLVLLPDEVSGLEQLESIINFEKLTEWTSSNVMEERKIKVYLPRMKMEEKYNLTSVLMAMGITDVFSSSANLSGISSAESLKISQAVHAAHAEINEAGREVVGSAEAGVDAASVSEEFRADHPFLFCIKHIATNAVLFFGRCVSP
binding result [13]: no binding
